Source: PMC2978346

Biological target: His6-PfSSB (Plasmodium falciparum 3D7, UniProt Q8I415 77-284)
Experiment: EMSA

B1: 70-mer ssDNA oligonucleotide (ssDNA)
DNA: CTGCCACACACCACCAAAGCTAACTGACAGGAGAATCCAGATGGATCATTTAAAGCATTTGCAACAATTG
binding result: binds
